tested on: PPO-deficient BT3 E. coli (ΔPPO); experiment: PPO-inhibiting herbicide tolerance test of PPO variants in E. coli (growth on herbicide-containing LB agar); format: cell-based; conditions: CyPPO19 variants in BT3 (ΔPPO) E. coli; LB agar with 0 to 2,000 μM herbicide, 37° C., dark, 16-20 hours
How it was run: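 Transformants were grown to OD600 0.5–1, adjusted to OD600=0.5 and spotted as 10-fold dilutions on LB agar with ampicillin (100 μg/mL) and 0 to 2,000 μM herbicide. Plates were kept at 37° C in the dark for 16-20 hours; growth was scored relative to wild type, one '+' per 10-fold resistance.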

Row | Molecule | tolerance level relative to wild type, Carfentrazone | tolerance level relative to wild type, Flumioxazin | tolerance level relative to wild type, Fomesafen | tolerance level relative to wild type, Oxyfluorfen | tolerance level relative to wild type, Saflufenacil | tolerance level relative to wild type, Sulfentrazone | tolerance level relative to wild type, Tiafenacil
1 | CyPPO19 V305M + F360L: variant of CyPPO19 PPO protein (SEQ ID NO: 1) (protein, Synthetic_PPO of Thermosynechococcus elongatus PKUAC-SCTE542 (comprising GenBank No. CP032152.1)) MSEVDVAIVGGGLSGLSLAWRLQQSAPQYSVVLLEASDRLGGNITTQTAEGFVWELGPNSFAPTPALLQLIAEVGLQSELIRGDRHLPRYIYWRGQLYPLQPTRPLALATSNLLSPWGKVRAALGALGFVPPYLGSGDESVNSFFRRHLGQEVAERLVAPFVSGVYAGDPQQLSAAAAFRRIAQLEKLGGGLIAGALHLRRQQAPKPKPPTSVQMRPGELGSFKEGLAALPRAIAQQLKAPIHLQTPVQEITPDPKGGYLLRSGEQTWRARSVVLATPAYQTAELVAPFQPAIARVLATIPYPTMACVVLAYPAGLGRSVRPGFGVLIPRSQGIRTLGTIWSSCLFPQRTPAGWQVFTSLIGGATDPDLASLSEEAIVQQVQQDLNRLLDLPAAKARLLGMKVWRRAIPQYMVGYPEQWQQVTHALSQTPGLFLCSNYAEGVALGDRVEHGNRTAAAVAAYLSGGQP | + (‘+’ per each 10-fold resistance) | ++++ (‘+’ per each 10-fold resistance) | ++ (‘+’ per each 10-fold resistance) | ++ (‘+’ per each 10-fold resistance) | ++++ (‘+’ per each 10-fold resistance) | ++ (‘+’ per each 10-fold resistance) | ++++ (‘+’ per each 10-fold resistance)
2 | CyPPO19 L327T + F360I: variant of CyPPO19 PPO protein (SEQ ID NO: 1) (protein, Synthetic_PPO of Thermosynechococcus elongatus PKUAC-SCTE542 (comprising GenBank No. CP032152.1)) MSEVDVAIVGGGLSGLSLAWRLQQSAPQYSVVLLEASDRLGGNITTQTAEGFVWELGPNSFAPTPALLQLIAEVGLQSELIRGDRHLPRYIYWRGQLYPLQPTRPLALATSNLLSPWGKVRAALGALGFVPPYLGSGDESVNSFFRRHLGQEVAERLVAPFVSGVYAGDPQQLSAAAAFRRIAQLEKLGGGLIAGALHLRRQQAPKPKPPTSVQMRPGELGSFKEGLAALPRAIAQQLKAPIHLQTPVQEITPDPKGGYLLRSGEQTWRARSVVLATPAYQTAELVAPFQPAIARVLATIPYPTVACVVLAYPAGLGRSVRPGFGVTIPRSQGIRTLGTIWSSCLFPQRTPAGWQVFTSIIGGATDPDLASLSEEAIVQQVQQDLNRLLDLPAAKARLLGMKVWRRAIPQYMVGYPEQWQQVTHALSQTPGLFLCSNYAEGVALGDRVEHGNRTAAAVAAYLSGGQP | + (‘+’ per each 10-fold resistance) | ++++ (‘+’ per each 10-fold resistance) | + (‘+’ per each 10-fold resistance) | ++ (‘+’ per each 10-fold resistance) | ++ (‘+’ per each 10-fold resistance) | +++ (‘+’ per each 10-fold resistance) | ++++ (‘+’ per each 10-fold resistance)
3 | CyPPO19 L327T + F360V: variant of CyPPO19 PPO protein (SEQ ID NO: 1) (protein, Synthetic_PPO of Thermosynechococcus elongatus PKUAC-SCTE542 (comprising GenBank No. CP032152.1)) MSEVDVAIVGGGLSGLSLAWRLQQSAPQYSVVLLEASDRLGGNITTQTAEGFVWELGPNSFAPTPALLQLIAEVGLQSELIRGDRHLPRYIYWRGQLYPLQPTRPLALATSNLLSPWGKVRAALGALGFVPPYLGSGDESVNSFFRRHLGQEVAERLVAPFVSGVYAGDPQQLSAAAAFRRIAQLEKLGGGLIAGALHLRRQQAPKPKPPTSVQMRPGELGSFKEGLAALPRAIAQQLKAPIHLQTPVQEITPDPKGGYLLRSGEQTWRARSVVLATPAYQTAELVAPFQPAIARVLATIPYPTVACVVLAYPAGLGRSVRPGFGVTIPRSQGIRTLGTIWSSCLFPQRTPAGWQVFTSVIGGATDPDLASLSEEAIVQQVQQDLNRLLDLPAAKARLLGMKVWRRAIPQYMVGYPEQWQQVTHALSQTPGLFLCSNYAEGVALGDRVEHGNRTAAAVAAYLSGGQP | + (‘+’ per each 10-fold resistance) | ++++ (‘+’ per each 10-fold resistance) | + (‘+’ per each 10-fold resistance) | ++ (‘+’ per each 10-fold resistance) | ++ (‘+’ per each 10-fold resistance) | ++ (‘+’ per each 10-fold resistance) | ++++ (‘+’ per each 10-fold resistance)
4 | CyPPO19 L327T + F360M: variant of CyPPO19 PPO protein (SEQ ID NO: 1) (protein, Synthetic_PPO of Thermosynechococcus elongatus PKUAC-SCTE542 (comprising GenBank No. CP032152.1)) MSEVDVAIVGGGLSGLSLAWRLQQSAPQYSVVLLEASDRLGGNITTQTAEGFVWELGPNSFAPTPALLQLIAEVGLQSELIRGDRHLPRYIYWRGQLYPLQPTRPLALATSNLLSPWGKVRAALGALGFVPPYLGSGDESVNSFFRRHLGQEVAERLVAPFVSGVYAGDPQQLSAAAAFRRIAQLEKLGGGLIAGALHLRRQQAPKPKPPTSVQMRPGELGSFKEGLAALPRAIAQQLKAPIHLQTPVQEITPDPKGGYLLRSGEQTWRARSVVLATPAYQTAELVAPFQPAIARVLATIPYPTVACVVLAYPAGLGRSVRPGFGVTIPRSQGIRTLGTIWSSCLFPQRTPAGWQVFTSMIGGATDPDLASLSEEAIVQQVQQDLNRLLDLPAAKARLLGMKVWRRAIPQYMVGYPEQWQQVTHALSQTPGLFLCSNYAEGVALGDRVEHGNRTAAAVAAYLSGGQP | + (‘+’ per each 10-fold resistance) | +++ (‘+’ per each 10-fold resistance) | + (‘+’ per each 10-fold resistance) | ++ (‘+’ per each 10-fold resistance) | + (‘+’ per each 10-fold resistance) | + (‘+’ per each 10-fold resistance) | +++ (‘+’ per each 10-fold resistance)
5 | CyPPO19 V305L + F360L: variant of CyPPO19 PPO protein (SEQ ID NO: 1) (protein, Synthetic_PPO of Thermosynechococcus elongatus PKUAC-SCTE542 (comprising GenBank No. CP032152.1)) MSEVDVAIVGGGLSGLSLAWRLQQSAPQYSVVLLEASDRLGGNITTQTAEGFVWELGPNSFAPTPALLQLIAEVGLQSELIRGDRHLPRYIYWRGQLYPLQPTRPLALATSNLLSPWGKVRAALGALGFVPPYLGSGDESVNSFFRRHLGQEVAERLVAPFVSGVYAGDPQQLSAAAAFRRIAQLEKLGGGLIAGALHLRRQQAPKPKPPTSVQMRPGELGSFKEGLAALPRAIAQQLKAPIHLQTPVQEITPDPKGGYLLRSGEQTWRARSVVLATPAYQTAELVAPFQPAIARVLATIPYPTLACVVLAYPAGLGRSVRPGFGVLIPRSQGIRTLGTIWSSCLFPQRTPAGWQVFTSLIGGATDPDLASLSEEAIVQQVQQDLNRLLDLPAAKARLLGMKVWRRAIPQYMVGYPEQWQQVTHALSQTPGLFLCSNYAEGVALGDRVEHGNRTAAAVAAYLSGGQP | + (‘+’ per each 10-fold resistance) | ++++ (‘+’ per each 10-fold resistance) | +++ (‘+’ per each 10-fold resistance) | ++ (‘+’ per each 10-fold resistance) | ++++ (‘+’ per each 10-fold resistance) | ++ (‘+’ per each 10-fold resistance) | ++++ (‘+’ per each 10-fold resistance)
6 | CyPPO19 V305M + F360T: variant of CyPPO19 PPO protein (SEQ ID NO: 1) (protein, Synthetic_PPO of Thermosynechococcus elongatus PKUAC-SCTE542 (comprising GenBank No. CP032152.1)) MSEVDVAIVGGGLSGLSLAWRLQQSAPQYSVVLLEASDRLGGNITTQTAEGFVWELGPNSFAPTPALLQLIAEVGLQSELIRGDRHLPRYIYWRGQLYPLQPTRPLALATSNLLSPWGKVRAALGALGFVPPYLGSGDESVNSFFRRHLGQEVAERLVAPFVSGVYAGDPQQLSAAAAFRRIAQLEKLGGGLIAGALHLRRQQAPKPKPPTSVQMRPGELGSFKEGLAALPRAIAQQLKAPIHLQTPVQEITPDPKGGYLLRSGEQTWRARSVVLATPAYQTAELVAPFQPAIARVLATIPYPTMACVVLAYPAGLGRSVRPGFGVLIPRSQGIRTLGTIWSSCLFPQRTPAGWQVFTSTIGGATDPDLASLSEEAIVQQVQQDLNRLLDLPAAKARLLGMKVWRRAIPQYMVGYPEQWQQVTHALSQTPGLFLCSNYAEGVALGDRVEHGNRTAAAVAAYLSGGQP | + (‘+’ per each 10-fold resistance) | ++ (‘+’ per each 10-fold resistance) | ++ (‘+’ per each 10-fold resistance) | + (‘+’ per each 10-fold resistance) | ++ (‘+’ per each 10-fold resistance) | + (‘+’ per each 10-fold resistance) | ++ (‘+’ per each 10-fold resistance)

— US12698507B2, “Methods and compositions for conferring and/or enhancing herbicide tolerance using protoporphyrinogen IX oxidase of various cyanobacteria or variant thereof” (FarmHannong Co., Ltd., priority 2019, dated 2026)
